These results are taken from article PMC3226724.

This series addresses T1, PriB (Escherichia coli, UniProt P07013 1-104).
T1 sequence: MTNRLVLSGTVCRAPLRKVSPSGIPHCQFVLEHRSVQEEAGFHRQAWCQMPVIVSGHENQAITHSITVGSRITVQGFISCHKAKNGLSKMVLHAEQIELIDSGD
In words: sedimentation equilibrium.

In the case of TTTTTTTTTTTTTTTTTTTTTTTTTT (ssDNA) [5'Fl-dT(pT)25 (called 27-mer)], the binding result is “binds”.
